Results as given in PMC8415317 (Genes & Development, 2021).
Where a chain is given by its changes, count along the chain named. In names and notes the source's numbering stands. Entries after “also recorded” stand apart in the source; their conditions may differ.

T1: PID-3/ERH-2 subcomplex (C. elegans, UniProt O76616 1-307; Q20057 1-113)
T1 sequence (looked up) 1: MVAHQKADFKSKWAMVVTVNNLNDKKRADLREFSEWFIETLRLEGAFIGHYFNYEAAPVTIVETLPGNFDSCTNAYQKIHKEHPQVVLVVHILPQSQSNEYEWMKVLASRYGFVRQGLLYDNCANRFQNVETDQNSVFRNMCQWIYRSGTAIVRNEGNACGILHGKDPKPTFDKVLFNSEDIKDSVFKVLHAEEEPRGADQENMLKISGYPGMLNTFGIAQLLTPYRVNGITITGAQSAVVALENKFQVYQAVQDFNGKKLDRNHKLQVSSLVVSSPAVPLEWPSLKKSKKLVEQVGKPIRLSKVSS
T1 sequence (looked up) 2: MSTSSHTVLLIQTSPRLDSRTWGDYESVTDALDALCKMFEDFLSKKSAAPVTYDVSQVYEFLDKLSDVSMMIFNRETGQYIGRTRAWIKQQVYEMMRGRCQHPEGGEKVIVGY

T2: TOFU-6 (C. elegans, UniProt Q09293 1-367)
T2 sequence (looked up): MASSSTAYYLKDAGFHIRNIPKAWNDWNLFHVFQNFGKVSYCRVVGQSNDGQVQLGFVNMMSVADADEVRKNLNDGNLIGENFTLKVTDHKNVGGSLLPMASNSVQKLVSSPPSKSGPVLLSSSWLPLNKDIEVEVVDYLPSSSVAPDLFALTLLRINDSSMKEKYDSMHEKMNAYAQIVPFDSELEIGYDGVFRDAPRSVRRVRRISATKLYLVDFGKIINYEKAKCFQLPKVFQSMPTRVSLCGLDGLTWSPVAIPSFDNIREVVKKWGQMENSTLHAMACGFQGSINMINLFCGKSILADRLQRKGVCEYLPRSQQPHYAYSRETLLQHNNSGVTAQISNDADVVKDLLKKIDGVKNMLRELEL

T3: full-length TOST-1 (TOST-1^FL) (C. elegans, UniProt Q18490 1-142)
T3 sequence (looked up): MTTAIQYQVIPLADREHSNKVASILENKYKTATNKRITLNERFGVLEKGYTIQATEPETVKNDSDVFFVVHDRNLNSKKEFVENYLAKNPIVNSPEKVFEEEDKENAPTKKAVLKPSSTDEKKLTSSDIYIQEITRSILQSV

T4: PID-1-mVenus-Strep (C. elegans, UniProt Q19541 1-169)
T4 sequence (looked up): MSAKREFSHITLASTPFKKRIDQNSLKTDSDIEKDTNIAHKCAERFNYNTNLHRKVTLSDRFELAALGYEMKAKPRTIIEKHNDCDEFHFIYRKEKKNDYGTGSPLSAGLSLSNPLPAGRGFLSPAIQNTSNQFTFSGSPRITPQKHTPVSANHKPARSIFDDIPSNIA

T5: ERH-2 W87A (C. elegans, UniProt Q20057 1-113, W87A)
T5 sequence (looked up): T1 sequence (looked up) 2 with W87A

T6: ERH-2 I81A/R83A (C. elegans, UniProt Q20057 1-113, I81A | R83A)
T6 sequence (looked up): T1 sequence (looked up) 2 with I81A, R83A

T7: TOFU-6 RRM (Caenorhabditis elegans, UniProt Q09293 1-99)
T7 sequence: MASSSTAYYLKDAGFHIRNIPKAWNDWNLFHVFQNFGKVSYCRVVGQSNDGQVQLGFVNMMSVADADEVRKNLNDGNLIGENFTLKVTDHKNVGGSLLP

B1: TOST-1-mVenus-Strep (natural protein, C. elegans, UniProt Q18490 1-142, looked up)
chain: T3 sequence (looked up)
B2: PID-3 full-length (natural protein, C. elegans, UniProt O76616 1-307, looked up)
chain: T1 sequence (looked up) 1
B3: PID-3 (I182A and V186A) (protein, UniProt O76616 1-307, looked up, variant I182A V186A)
Protein pid-3: T1 sequence (looked up) 1 with I182A, V186A
B4: PID-3(A220E) (protein, UniProt O76616 1-307, looked up, variant A220E)
Protein pid-3: T1 sequence (looked up) 1 with A220E
B5: ^15N-labeled full-length ERH-2 (natural protein, C. elegans)
chain: GHMASMSTSSHTVLLIQTSPRLDSRTWGDYESVTDALDALCKMFEDFLSKKSAAPVTYDVSQVYEFLDKLSDVSMMIFNRETGQYIGRTRAWIKQQVYEMMRGRCQHPEGGEKVIVGY
B6: full-length ERH-2^FL (natural protein, C. elegans, UniProt Q20057 1-113, looked up)
chain: T1 sequence (looked up) 2
B7: GST-PID-3^pep (peptide, UniProt O76616 171-203, looked up)
chain: TFDKVLFNSEDIKDSVFKVLHAEEEPRGADQEN
B8: Cy5-U16 (ssRNA)
RNA: UUUUUUUUUUUUUUUU
B9: ERH-2^ΔC (domain or fragment, C. elegans, UniProt Q20057 1-99, looked up)
chain: MSTSSHTVLLIQTSPRLDSRTWGDYESVTDALDALCKMFEDFLSKKSAAPVTYDVSQVYEFLDKLSDVSMMIFNRETGQYIGRTRAWIKQQVYEMMRGR

Assays:
[1] = biological target: T1, PID-3/ERH-2 subcomplex; experiment: pull-down
[2] = biological target: the molecule itself; experiment: SEC-MALS
[3] = biological target: T2, TOFU-6; experiment: SEC-MALS
[4] = system: 21U RNA; experiment: 21U RNA sequencing; format: in vivo, C. elegans; conditions: small RNA-seq, 20°C and 25°C, n = 3, versus wild type
[5] = system: P granules (perinuclear foci); experiment: Subcellular localization by confocal microscopy; format: in vivo, C. elegans; conditions: GFP-tagged PID-3, 25°C
[6] = biological target: T3, full-length TOST-1 (TOST-1^FL); experiment: NMR titration
[7] = biological target: T4, PID-1-mVenus-Strep; experiment: pull-down
[8] = biological target: B2; experiment: SEC
[9] = biological target: T3, full-length TOST-1 (TOST-1^FL); experiment: ITC
[10] = biological target: T5, ERH-2 W87A; experiment: pull-down
[11] = biological target: T6, ERH-2 I81A/R83A; experiment: pull-down
[12] = biological target: T7, TOFU-6 RRM; experiment: fluorescence anisotropy
[13] = biological target: the molecule itself; experiment: crystal structure

Molecule: B1
binding result [1]: binds

Molecule: B2
binding result [2]: binds
binding result [3]: binds

Molecule: B3
21U RNA levels [4]: temperature-sensitive effect on overall 21U RNA levels; also recorded: affect all 21U RNA species

Molecule: B4
subcellular localization [5]: did not form perinuclear foci

Molecule: B5
binding result [6]: binds

Molecule: B6
binding result [7]: binds
binding result [8]: binds
Kd [9]: 13 µM

Molecule: B7
binding result [10]: binds
binding result [11]: binds

Molecule: B8
Kd [12]: ~60 µM

Molecule: B9
binding result [13]: binds
